Laboratory results published in the RNAGym collection of RNA variant scans (doi:10.7554/elife.80360).

B1: Hairpin Ribozyme (parent)
chain: GUCCUCUUUCACGUGCGCGUGAAAGAGAGAAGUGAACCAGAGAAACACACGUUGUGGUAUAUUACCUGGUA

Variants of: B1
Test: self-cleavage, relative activity (ratio to wild type); higher = more cleavage; co-transcriptional

Variant	self-cleavage
GUCCUCUUUCACGUGCGCGAGAAAGAGAGAAGUGAACCCGAGAAACACACGUUGUGGUAUAUUACCUGGUA [U20A A39C]	0.403
GUCCUCUUUCACGUGCGCGAGAAAGAGAGAAGUGAACCGGAGAAACACACGUUGUGGUAUAUUACCUGGUA [U20A A39G]	0.302
GUCCUCUUUCACGUGCGCUUGAAAGAGAGAAGUGAACCAGAGAAACACACGUUGUGGUAUAUCACCUGGUA [G19U U63C]	0.164
GUCCUCUUUCACGUGCGCUUGAAAGAGAGAAGUGAACCAUAGAAACACACGUUGUGGUAUAUUACCUGGUA [G19U G40U]	0.194
GUCCUCUUUCACGUGCGCUUGAAAGAGAGAAGUGAACCAGAGAAACACACGUUGUGGUCUAUUACCUGGUA [G19U A59C]	0.242
GUCCUCUUUCACGUGCGCUUGAAAGAGAGAAGCGAACCAGAGAAACACACGUUGUGGUAUAUUACCUGGUA [G19U U33C]	0.202
GUCCUCUUUCACGUGCGCUUGAAAGAGAGAAGGGAACCAGAGAAACACACGUUGUGGUAUAUUACCUGGUA [G19U U33G]	0.117
GUCCUCUUUCACGUGCGCUUGAAAGAGAGAAGAGAACCAGAGAAACACACGUUGUGGUAUAUUACCUGGUA [G19U U33A]	0.237
GUCCUCUUUCACGUGCGCGAGAAAGAGAGAAGUGAACCAGAGAAAUACACGUUGUGGUAUAUUACCUGGUA [U20A C46U]	0.183
GUCCUCUUUCACGUGCGCGAGAAAGAGAGAAGUGAACAAGAGAAACACACGUUGUGGUAUAUUACCUGGUA [U20A C38A]	0.168
GUCCUCUUUCACGUGCGCGAGAAAGAGAGAAGUGAACCAGAGAAACACACGUUGUGGUUUAUUACCUGGUA [U20A A59U]	0.144
GUCCUCUUUCACGUGCGCGAGAAAGAGAGAAGUGAACCAGACAAACACACGUUGUGGUAUAUUACCUGGUA [U20A G42C]	0.306
GUCCUCUUUCACGUGCGCGAGAAAGAGAGAAGUGAACCAGAGAAACACACGUUGUGGUAUAGUACCUGGUA [U20A U62G]	0.195
GUCCUCUUUCACGUGCGCGAGAAAGAGAGAAGUGAACCAGAGAAACACACGUUGUGGUAUACUACCUGGUA [U20A U62C]	0.446
GUCCUCUUUCACGUGCGCUUGAAAGAGAGAAGUGAACCAGAGAAACACACGUUGUGGUAUUUUACCUGGUA [G19U A61U]	0.183
GUCCUCUUUCACGUGCGCGAGAAAGAGAGAAGUGAACCAGAGAAACACACGUUGUGGGAUAUUACCUGGUA [U20A U58G]	0.762
GUCCUCUUUCACGUGCGCGAGAAAGAGAGAAGUGAACCAGAGAAACACACGUUGUGGAAUAUUACCUGGUA [U20A U58A]	0.709
GUCCUCUUUCACGUGCGCGAGAAAGAGAGAAGUGAACCAGAGAAACCCACGUUGUGGUAUAUUACCUGGUA [U20A A47C]	0.293
GUCCUCUUUCACGUGCGCUUGAAAGAGAGAAGUGAACCAGAGAAACACACGUUGUUGUAUAUUACCUGGUA [G19U G56U]	0.179
GUCCUCUUUCACGUGCGCUUGAAAGAGAGAAGUGAACCAGAGAAACACACGUUGUGGUAUAUUACCUGGAA [G19U U70A]	0.773
GUCCUCUUUCACGUGCGCUUGAAAGAGAGAAGUGAACCAGAGAAACACACGUUGUGGUAUAUUACCUGGCA [G19U U70C]	0.722
GUCCUCUUUCACGUGCGCGAGAAAGAGAGAAGUGAACCAGAGAAACACACGUUGUGGUAAAUUACCUGGUA [U20A U60A]	0.607
GUCCUCUUUCACGUGCGCGAGAAAGAGAGAAGUGAACCAGAGAAACACGCGUUGUGGUAUAUUACCUGGUA [U20A A49G]	0.437
GUCCUCUUUCACGUGCGCUUGAAAGAGAGAAGUGAACGAGAGAAACACACGUUGUGGUAUAUUACCUGGUA [G19U C38G]	0.225
GUCCUCUUUCACGUGCGCGACAAAGAGAGAAGUGAACCAGAGAAACACACGUUGUGGUAUAUUACCUGGUA [U20A G21C]	0.691
GUCCUCUUUCACGUGCGCGAGAAAGAGAGAAGUGAACCAGAGAAACAAACGUUGUGGUAUAUUACCUGGUA [U20A C48A]	0.23

Variant	self-cleavage
GUCCUCUUUCACGUGCGCGAGAAAGAGAGAAGUGAACCAGAGAAACAGACGUUGUGGUAUAUUACCUGGUA [U20A C48G]	0.219
GUCCUCUUUCACGUGCGCGAGAAAGAUAGAAGUGAACCAGAGAAACACACGUUGUGGUAUAUUACCUGGUA [U20A G27U]	0.203
GUCCUCUUUCACGUGCGCUUGAAAGAGAGAAGUGAACCAGAGAAACACACGUUCUGGUAUAUUACCUGGUA [G19U G54C]	0.437
GUCCUCUUUCACGUGCGCUUUAAAGAGAGAAGUGAACCAGAGAAACACACGUUGUGGUAUAUUACCUGGUA [G19U G21U]	0.784
GUCCUCUUUCACGUGCGCGAGAAAGAGAGAAGUGAACCAGAGAAACACACGUUCUGGUAUAUUACCUGGUA [U20A G54C]	0.362
GUCCUCUUUCACGUGCGCGAGAAAGAGAGAAGUGAACCAGAGAAACACACGUUUUGGUAUAUUACCUGGUA [U20A G54U]	0.547
GUCCUCUUUCACGUGCGCGAGAACGAGAGAAGUGAACCAGAGAAACACACGUUGUGGUAUAUUACCUGGUA [U20A A24C]	0.81
GUCCUCUUUCACGUGCGCUUGAAAGAGAGAAGUGAACCAGAGAAAAACACGUUGUGGUAUAUUACCUGGUA [G19U C46A]	0.17
GUCCUCUUUCACGUGCGCUUGAAAGAGAGAAGUGAACCAGAGAAAGACACGUUGUGGUAUAUUACCUGGUA [G19U C46G]	0.157
GUCCUCUUUCACGUGCGCGAGAAAGAGAGAAGUGAGCCAGAGAAACACACGUUGUGGUAUAUUACCUGGUA [U20A A36G]	0.858
GUCCUCUUUCACGUGCGCUUGAAAGAGAGAAGUGAACCAGAGAAACACACGUUGUGGUAUAUUACUUGGUA [G19U C66U]	0.334
GUCCUCUUUCACGUGCGCUUGAAAGAGAGAAUUGAACCAGAGAAACACACGUUGUGGUAUAUUACCUGGUA [G19U G32U]	0.118
GUCCUCUUUCACGUGCGCUUGAAAGAGAGAACUGAACCAGAGAAACACACGUUGUGGUAUAUUACCUGGUA [G19U G32C]	0.137
GUCCUCUUUCACGUGCGCGAGAAAGAGAGAAGUGAACCAGAGAAACACACGUUGUGGUAUAUUAGCUGGUA [U20A C65G]	0.182
GUCCUCUUUCACGUGCGCGAGAAAGAGAGAAGUGAACCAGAGAAACACACGUUGUGGUAUAUUAACUGGUA [U20A C65A]	0.857
GUCCUCUUUCACGUGCGCGAGAAAGAGAGAAGUGAACCAGAGAAACACACGUUGUGGUAUAUUUCCUGGUA [U20A A64U]	0.135
GUCCUCUUUCACGUGCGCUUGAAAGAGAGAAGUGAACCAGAGAAACACACGUCGUGGUAUAUUACCUGGUA [G19U U53C]	0.952
GUCCUCUUUCACGUGCGCUUGAAAGAGAGAAGUGAACCAGAGAAACACACGUAGUGGUAUAUUACCUGGUA [G19U U53A]	0.971
GUCCUCUUUCACGUGCGCUUGAAAGAGAGAAGUGAACCAGAGAAACACACGUGGUGGUAUAUUACCUGGUA [G19U U53G]	0.772
GUCCUCUUUCACGUGCGCGAGAAAGAGACAAGUGAACCAGAGAAACACACGUUGUGGUAUAUUACCUGGUA [U20A G29C]	0.203
GUCCUCUUUCACGUGCGCGAGAAAGAGAUAAGUGAACCAGAGAAACACACGUUGUGGUAUAUUACCUGGUA [U20A G29U]	0.165
GUCCUCUUUCACGUGCGCGAGAAAGAGAGAAGUGAACCAGAGAGACACACGUUGUGGUAUAUUACCUGGUA [U20A A44G]	0.112
GUCCUCUUUCACGUGCGCGAGAAAGAGAGAAGUGAACCAGAGAUACACACGUUGUGGUAUAUUACCUGGUA [U20A A44U]	0.177
GUCCUCUUUCACGUGCGCGAGAUAGAGAGAAGUGAACCAGAGAAACACACGUUGUGGUAUAUUACCUGGUA [U20A A23U]	0.785
GUCCUCUUUCACGUGCGCGAGAGAGAGAGAAGUGAACCAGAGAAACACACGUUGUGGUAUAUUACCUGGUA [U20A A23G]	0.783
GUCCUCUUUCACGUGCGCUGGAAAGAGAGAAGUGAACCAGAGAAACACACGUUGUGGUAUAUUACCUGGUA [G19U U20G]	0.707

Variant	self-cleavage
GUCCUCUUUCACGUGCGCUUGAAAGAGAGAAGUGAAGCAGAGAAACACACGUUGUGGUAUAUUACCUGGUA [G19U C37G]	0.341
GUCCUCUUUCACGUGCGCUUGAAAGAGAGAAGUGAACCAGAGAAACACACGUUGUGGUAUAUUAUCUGGUA [G19U C65U]	0.306
GUCCUCUUUCACGUGCGCUUGAAAGAGAGAAGUGAACCAGACAAACACACGUUGUGGUAUAUUACCUGGUA [G19U G42C]	0.492
GUCCUCUUUCACGUGCGCGAGAAAGAGAGAUGUGAACCAGAGAAACACACGUUGUGGUAUAUUACCUGGUA [U20A A31U]	0.148
GUCCUCUUUCACGUGCGCUUGAAAGAGAGAAGUGAACCAGAGAAACACACGUUGUGUUAUAUUACCUGGUA [G19U G57U]	0.207
GUCCUCUUUCACGUGCGCGAGAAAGAGAGAAGUGAAACAGAGAAACACACGUUGUGGUAUAUUACCUGGUA [U20A C37A]	0.218
GUCCUCUUUCACGUGCGCGAGAAAGAGAGAAGUGAACCAGAGAAACACACGUUGUGGUAUAUUACCUGGUG [U20A A71G]	0.89
GUCCUCUUUCACGUGCGCUUGAAAGAGAGAAGUGAACCAGAGAAACACACGCUGUGGUAUAUUACCUGGUA [G19U U52C]	0.818
GUCCUCUUUCACGUGCGCUUGAAAGAGAGAAGUGAACCAGAGAAACACACGAUGUGGUAUAUUACCUGGUA [G19U U52A]	0.881
GUCCUCUUUCACGUGCGCUUGAAAGAGAGAAGUGAACCAGAGAAACACACGUUGUGGCAUAUUACCUGGUA [G19U U58C]	0.994
GUCCUCUUUCACGUGCGCUUGAAAGAGAGAAGUGAACCAGAGAAACACACGUUGUGGGAUAUUACCUGGUA [G19U U58G]	0.672
GUCCUCUUUCACGUGCGCGAGAAAGAGAGAAGUGAACCAGAGAAACACACGUUGUGGUAUUUUACCUGGUA [U20A A61U]	0.238
GUCCUCUUUCACGUGCGCGAGAAAGAGAGAAGUGAACCAGAGAAACACACGUUGUGGUAUGUUACCUGGUA [U20A A61G]	0.11
GUCCUCUUUCACGUGCGCUUGAAAGAGAGAAGUGAACCAGAGAAACACACGUUGGGGUAUAUUACCUGGUA [G19U U55G]	0.313
GUCCUCUUUCACGUGCGCUUGAAAGAGAGAAGUGAACCAGAGAAACACACGUUGAGGUAUAUUACCUGGUA [G19U U55A]	0.287
GUCCUCUUUCACGUGCGCGAGAAAGAGAGAAGUGAACCAGAGAAACACACGUUGUGGUAUAUUACCUGUUA [U20A G69U]	0.252
GUCCUCUUUCACGUGCGCGAGAAAGAGAGAAGUGAACCAGAGAAACACACGUUGUGGUAUAUUACCUGCUA [U20A G69C]	0.268
GUCCUCUUUCACGUGCGCUUGAAAGAGAGAAGUGAACCAGAGAAACACAGGUUGUGGUAUAUUACCUGGUA [G19U C50G]	0.199
GUCCUCUUUCACGUGCGCGAGAAAGAGAGAAGUGAACCAAAGAAACACACGUUGUGGUAUAUUACCUGGUA [U20A G40A]	0.242
GUCCUCUUUCACGUGCGCUUGAAAGAGAGAAGUGAACCAGAGAAACAUACGUUGUGGUAUAUUACCUGGUA [G19U C48U]	0.162
GUCCUCUUUCACGUGCGCUUGAAAGAGAGAAGUGAACCAGAGAAACACACGUUGUGGUAUAUUACCUAGUA [G19U G68A]	0.286
GUCCUCUUUCACGUGCGCGAGAAAGAGAGGAGUGAACCAGAGAAACACACGUUGUGGUAUAUUACCUGGUA [U20A A30G]	0.184
GUCCUCUUUCACGUGCGCGAGAAAGAGAGAAGUGAACCAGCGAAACACACGUUGUGGUAUAUUACCUGGUA [U20A A41C]	1.28
GUCCUCUUUCACGUGCGCGAGAAAGAGAGAAGUGAACCAGUGAAACACACGUUGUGGUAUAUUACCUGGUA [U20A A41U]	1.16
